Test results as given in article PMC4878091 (The Journal of Cell Biology, 2016).

Biological target: recombinant collagen IV α2 monomer (α2-84/α2-CB3)
Assay: SEC

B1: recombinant collagen IV α1 monomer (α1-84/α1-CB3) (domain or fragment)
chain: not shown
  stoichiometry N: 2
